# Measured values published in IntAct's records for PubMed 35512704.
# B1: Mothers against decapentaplegic homolog 4 (Homo sapiens), Q13485 (parent)
# chain: MDNMSITNTPTSNDACLSIVHSLMCHRQGGESETFAKRAIESLVKKLKEKKDELDSLITAITTNGAHPSKCVTIQRTLDGRLQVAGRKGFPHVIYARLWRWPDLHKNELKHVKYCQYAFDLKCDSVCVNPYHYERVVSPGIDLSGLTLQSNAPSSMMVKDEYVHDFEGQPSLSTEGHSIQTIQHPPSNRASTETYSTPALLAPSESNATSTANFPNIPVASTSQPASILGGSHSEGLLQIASGPQPGQQQNGFTGQPATYHHNSTTTWTGSRTAPYTPNLPHHQNGHLQHHPPMPPHPGHYWPVHNELAFQPPISNHPAPEYWCSIAYFEMDVQVGETFKVPSSCPIVTVDGYVDPSGGDRFCLGQLSNVHRTEAIERARLHIGKGVQLECKGEGDVWVRCLSDHAVFVQSYYLDREAGRAPGDAVHKIYPSAYIKVFDLRQCHRQMQQQAATAQAAAAAQAAAVAGNIPGPGSVGGIAPAISLSAAAGIGVDDLRRLCILRMSFVKGWGPDYPRQSIKETPCWIEIHLHRALQLLDEVLHTMPIADPQPLD
# partner: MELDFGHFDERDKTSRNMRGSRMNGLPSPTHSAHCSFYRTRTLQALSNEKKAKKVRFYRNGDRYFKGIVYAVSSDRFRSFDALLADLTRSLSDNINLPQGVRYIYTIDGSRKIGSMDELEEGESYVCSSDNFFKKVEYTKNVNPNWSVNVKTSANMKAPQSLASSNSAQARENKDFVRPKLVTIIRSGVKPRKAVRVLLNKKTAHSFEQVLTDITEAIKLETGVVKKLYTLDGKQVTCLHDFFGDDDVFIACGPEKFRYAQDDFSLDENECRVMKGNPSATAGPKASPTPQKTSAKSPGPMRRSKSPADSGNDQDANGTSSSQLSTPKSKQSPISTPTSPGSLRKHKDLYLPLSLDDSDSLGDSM
# B2: Mothers against decapentaplegic homolog 4 (Homo sapiens), Q13485 (parent)
# chain: B1 chain
# partner: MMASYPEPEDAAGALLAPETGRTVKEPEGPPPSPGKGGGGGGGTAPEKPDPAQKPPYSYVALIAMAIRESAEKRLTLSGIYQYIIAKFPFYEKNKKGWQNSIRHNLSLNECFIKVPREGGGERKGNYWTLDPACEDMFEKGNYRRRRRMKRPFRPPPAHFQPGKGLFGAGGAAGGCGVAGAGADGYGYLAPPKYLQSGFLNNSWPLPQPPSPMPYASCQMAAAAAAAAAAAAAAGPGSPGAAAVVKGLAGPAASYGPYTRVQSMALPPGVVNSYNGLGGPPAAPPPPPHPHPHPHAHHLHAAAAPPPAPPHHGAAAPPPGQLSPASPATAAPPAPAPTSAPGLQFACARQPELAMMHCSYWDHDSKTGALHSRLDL
# B3: Mothers against decapentaplegic homolog 4 (Homo sapiens), Q13485 (parent)
# chain: B1 chain
# partner: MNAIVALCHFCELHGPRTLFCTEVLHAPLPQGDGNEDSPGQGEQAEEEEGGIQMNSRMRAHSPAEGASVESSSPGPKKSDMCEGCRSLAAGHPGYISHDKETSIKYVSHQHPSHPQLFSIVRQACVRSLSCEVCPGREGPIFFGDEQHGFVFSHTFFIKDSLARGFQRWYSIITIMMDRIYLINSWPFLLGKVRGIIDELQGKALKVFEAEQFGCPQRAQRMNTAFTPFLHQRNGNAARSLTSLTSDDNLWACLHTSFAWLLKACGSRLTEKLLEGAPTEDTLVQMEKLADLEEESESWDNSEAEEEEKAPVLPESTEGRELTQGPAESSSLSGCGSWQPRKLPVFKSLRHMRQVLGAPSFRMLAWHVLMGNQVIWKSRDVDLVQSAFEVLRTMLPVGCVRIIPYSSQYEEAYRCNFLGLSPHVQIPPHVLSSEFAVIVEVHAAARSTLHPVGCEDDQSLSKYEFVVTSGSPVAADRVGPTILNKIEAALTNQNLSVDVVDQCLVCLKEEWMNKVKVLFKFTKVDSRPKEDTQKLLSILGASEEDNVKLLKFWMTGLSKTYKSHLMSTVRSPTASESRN
# B4: Mothers against decapentaplegic homolog 4 (Homo sapiens), Q13485 (parent)
# chain: B1 chain
# partner: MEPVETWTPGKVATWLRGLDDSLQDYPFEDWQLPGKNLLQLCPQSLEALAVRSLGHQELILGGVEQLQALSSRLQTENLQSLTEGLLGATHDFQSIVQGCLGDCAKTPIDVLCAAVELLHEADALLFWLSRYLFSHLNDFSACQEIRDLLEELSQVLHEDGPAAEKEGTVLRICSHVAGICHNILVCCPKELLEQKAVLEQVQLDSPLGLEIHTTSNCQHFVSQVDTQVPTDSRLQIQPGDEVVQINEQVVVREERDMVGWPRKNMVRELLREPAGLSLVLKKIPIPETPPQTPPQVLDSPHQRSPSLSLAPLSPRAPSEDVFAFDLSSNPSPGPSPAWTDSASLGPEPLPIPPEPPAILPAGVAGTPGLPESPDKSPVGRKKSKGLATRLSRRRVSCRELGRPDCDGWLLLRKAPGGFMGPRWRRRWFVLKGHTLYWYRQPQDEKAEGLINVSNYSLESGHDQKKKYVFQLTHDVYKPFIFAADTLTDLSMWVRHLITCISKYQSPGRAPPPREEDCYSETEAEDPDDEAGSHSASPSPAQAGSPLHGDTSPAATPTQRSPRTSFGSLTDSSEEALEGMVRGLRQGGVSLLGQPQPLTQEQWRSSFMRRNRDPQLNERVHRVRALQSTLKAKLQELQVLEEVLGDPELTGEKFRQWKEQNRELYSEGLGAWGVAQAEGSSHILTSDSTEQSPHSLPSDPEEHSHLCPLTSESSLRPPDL
# Variants of: B1
# Conditions: with dcx_human DCX
row,Variant,effect of a mutation on the interaction
1,R361H,with no effect

# Variants of: B1
# Conditions: with dcx_human DCX
# Remark: another data set of the same source
row,Variant,effect of a mutation on the interaction
1,R361C,with no effect

# Variants of: B1
# Conditions: with dcx_human DCX
# Remark: another data set of the same source
row,Variant,effect of a mutation on the interaction
1,G386D,with no effect

# Variants of: B1
# Conditions: with dcx_human DCX
# Remark: another data set of the same source
row,Variant,effect of a mutation on the interaction
1,D351H,with no effect

# Variants of: B2
# Conditions: with foxl2_human FOXL2, P58012
row,Variant,effect of a mutation on the interaction
1,D351H,with no effect

# Variants of: B2
# Conditions: with foxl2_human FOXL2, P58012
# Remark: another data set of the same source
row,Variant,effect of a mutation on the interaction
1,R361C,with no effect

# Variants of: B2
# Conditions: with foxl2_human FOXL2, P58012
# Remark: another data set of the same source
row,Variant,effect of a mutation on the interaction
1,R361H,with no effect

# Variants of: B2
# Conditions: with foxl2_human FOXL2, P58012
# Remark: another data set of the same source
row,Variant,effect of a mutation on the interaction
1,G386D,with no effect

# Variants of: B3
# Conditions: with flcn_human FLCN
row,Variant,effect of a mutation on the interaction
1,R361H,with no effect

# Variants of: B3
# Conditions: with flcn_human FLCN
# Remark: another data set of the same source
row,Variant,effect of a mutation on the interaction
1,R361C,with no effect

# Variants of: B3
# Conditions: with flcn_human FLCN
# Remark: another data set of the same source
row,Variant,effect of a mutation on the interaction
1,D351H,with no effect

# Variants of: B3
# Conditions: with flcn_human FLCN
# Remark: another data set of the same source
row,Variant,effect of a mutation on the interaction
1,G386D,with no effect

# Variants of: B4
# Conditions: with cnkr1_human CNKSR1, Q969H4
row,Variant,effect of a mutation on the interaction
1,D351H,with no effect

# Variants of: B4
# Conditions: with cnkr1_human CNKSR1, Q969H4
# Remark: another data set of the same source
row,Variant,effect of a mutation on the interaction
1,R361C,with no effect
